Publication PMC7932536

Assays:
[1] = target: Human amyloid beta (Aβ) 42 peptide (human) (UniProt P05067)
[2] = target: Human amyloid beta (Aβ) 42 peptide (human) (UniProt P05067); remark: listed apart in the source

SAMP8 type Serpina3n, sequence (Q91WP6 21-418): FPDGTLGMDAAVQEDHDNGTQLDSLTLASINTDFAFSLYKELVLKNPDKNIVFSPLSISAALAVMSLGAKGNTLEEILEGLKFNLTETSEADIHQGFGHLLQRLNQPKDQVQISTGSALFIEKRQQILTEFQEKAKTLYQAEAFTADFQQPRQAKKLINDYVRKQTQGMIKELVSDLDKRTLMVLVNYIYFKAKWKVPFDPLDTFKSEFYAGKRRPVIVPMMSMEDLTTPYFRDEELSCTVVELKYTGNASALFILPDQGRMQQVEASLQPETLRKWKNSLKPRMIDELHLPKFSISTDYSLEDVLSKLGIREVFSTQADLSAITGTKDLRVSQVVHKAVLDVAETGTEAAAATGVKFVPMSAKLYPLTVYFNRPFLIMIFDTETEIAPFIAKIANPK

SAMP8 type Serpina3n (from UniProt Q91WP6 21-418) (natural protein)
prevalence of oligomer rich observation fields of Aβ 42 under TEM, 0 to 72 hr of preincubation (delayed fibrillization) [1]: 72 h | thioflavin T fluorescence assay of Aβ 42 fibrillization (time for which oligomeric or small protofibrillar forms were kept before the plateau) [2]: 13 h
